Test [1] has as its target T1, human CXCR4 (human, UniProt P61073 1-352).
T1 construct: whole, on cells; Tested by flow cytometry; also called human C-X-C Motif Chemokine Receptor 4
Briefly: figure legend (flow cytometry of Example 10). An excerpt: (§1) Fab phage libraries were panned on mouse CXCR4 lipoparticles. Clones were screened by lipoparticle ELISA. Binders were sequenced and grouped into families based on CDR3 homology. Fab from three VHCDR3 families were validated by flow cytometry using HEK293 cells expressing natively folded mouse CXCR4. These families were subsequently tested for binding to human CXCR4 by flow cytometry. The positive clones were recloned into IgG format according to standard methods. Three VHCDR3 families were identified that are crossreactive with human and mouse CXCR4. The amino acid sequences of the heavy chain variable region of the mouse and human CXCR4 binding antibodies are set forth in SEQ Nos: 31, 32 and 33.
A general note: A flow cytometer gives signals particle by particle.

In test [2] the target is T2, mouse CXCR4 (wildtype full length) (mouse, UniProt P70658 1-359).
T2 construct: Natively folded mouse CXCR4 expressed on HEK293 cells for flow cytometry
Briefly: flow cytometry, Fab on HEK293 cells expressing natively folded mouse CXCR4.
From the text: as §1

In test [3] the target is T1, human CXCR4. The experiment in a line: flow cytometry on human CXCR4.
From the text: as §1

For test [4], the target named is T2, mouse CXCR4 (wildtype full length). The experiment in a line: figure legend (flow cytometry of Example 10).
From the text: as §1

T2 sequence (P70658 whole entry): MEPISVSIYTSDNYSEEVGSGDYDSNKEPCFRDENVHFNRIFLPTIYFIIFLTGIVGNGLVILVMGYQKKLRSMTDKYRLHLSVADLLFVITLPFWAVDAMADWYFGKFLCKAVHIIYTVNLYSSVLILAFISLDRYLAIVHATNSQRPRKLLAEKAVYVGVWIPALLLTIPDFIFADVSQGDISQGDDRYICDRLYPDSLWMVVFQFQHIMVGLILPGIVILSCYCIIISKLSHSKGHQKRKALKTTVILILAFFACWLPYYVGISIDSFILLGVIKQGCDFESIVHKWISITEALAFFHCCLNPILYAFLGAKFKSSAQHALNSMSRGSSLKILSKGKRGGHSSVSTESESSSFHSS
T1 sequence (P61073 whole entry): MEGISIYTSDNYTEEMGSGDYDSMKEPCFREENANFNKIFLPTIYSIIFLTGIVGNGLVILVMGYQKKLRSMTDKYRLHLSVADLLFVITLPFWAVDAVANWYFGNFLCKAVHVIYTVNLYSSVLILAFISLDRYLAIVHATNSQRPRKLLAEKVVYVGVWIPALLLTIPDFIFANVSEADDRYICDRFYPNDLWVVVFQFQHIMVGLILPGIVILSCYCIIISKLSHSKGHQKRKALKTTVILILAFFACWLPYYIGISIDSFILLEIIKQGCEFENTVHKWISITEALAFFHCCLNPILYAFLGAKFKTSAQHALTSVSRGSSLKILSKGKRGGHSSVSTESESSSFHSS

B1: CXCR4-2 (second chimeric Fab comprising a chicken VH paired with a human VL that binds to mouse and human CXCR4) (Fab, V domains shown)
VH: AVTLDESGGGLQTPGGALSLVCKASGFSFSSYDMSWVRQAPGKGLEWVAGIYSIGRDAGYGAAVKGRATISRDNGQSTVRLQLNNLRAEDTGTYYCAKESGSACRYAARHGYICAGYLGSIDAWGHGTEVIVSS
VL: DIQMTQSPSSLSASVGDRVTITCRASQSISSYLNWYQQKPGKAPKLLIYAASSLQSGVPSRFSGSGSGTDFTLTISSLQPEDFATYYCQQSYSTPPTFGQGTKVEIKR
notes: Positive clones were later recloned into IgG format; also called chicken VH-human VL Fab
Turning to B1, the binding result in test [1] and in test [2] was “binds” each time.

B2: CXCR4-1 (first chimeric Fab comprising a chicken VH paired with a human VL that binds to mouse and human CXCR4) (Fab, V domains shown)
VH: AVTLDESGGGLQTPGGALSLVCKASGFTFSSYRGMHWVRQAPGKGLEWVAGIYSSGSSTAYGAAVKGRATISRDDGQSTVRLQLNNLRAEDTGTYYCAKDAGSCWYGRRSGFNCDPYGGNIDAWGHGTEVIVSS
VL: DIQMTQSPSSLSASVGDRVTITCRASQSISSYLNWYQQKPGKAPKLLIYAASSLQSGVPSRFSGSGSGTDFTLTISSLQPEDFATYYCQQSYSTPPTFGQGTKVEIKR
notes: as for B1
B2: the binding result in test [3] and in test [2] was “binds” in each case.

B3: CXCR4-3 (third chimeric Fab comprising a chicken VH paired with a human VL that binds to mouse and human CXCR4) (Fab, V domains shown)
VH: AVTLDESGGGLQTPGGALSLVCKASGFSIGSYGMGWVRQAPGKGLEFVAGISTIGGVTWYGAAVKGRAIISRDNGQSTVRLQLNNLRAEDTGTYFCAKASDSPSCRYGSRSGWSCPGWNYGGRIDAWGHGTEVIVSS
VL: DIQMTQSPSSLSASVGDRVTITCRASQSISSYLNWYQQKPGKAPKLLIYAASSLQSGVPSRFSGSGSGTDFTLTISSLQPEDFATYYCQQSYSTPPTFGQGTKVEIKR
notes: as for B1
Turning to B3, the binding result in test [4] and in test [1] was “binds” each time.

The values above are taken from patent US20220073649A1 (MERUS N V, published 2022).
